Experimental findings from the supplement of paper PMC11316812 are described below.

± gives the standard deviation of the averaged measurements.

The subject of one data set is MCF7. The data set can be described thus: percentage of EdU-negative (G0-arrested) nuclei per well, 72 h; higher = more G0 arrest. To be noted: reference: sequence is the full UniProt precursor, the tested protein was the secreted form or ectodomain.
In another data set the test system is hTERT-HMEC. The description is as above. To be noted: reference: sequence is the full UniProt precursor, the tested protein was the secreted form or ectodomain.
Setting [1] is: protein concentration 0.02103 µM.
Where [2] appears, read: protein concentration 0.2103 µM.
Where [3] appears, read: protein concentration 0.0082175 µM.
Setting [4] is: protein concentration 0.01138 µM.
Where [5] appears, read: protein concentration 0.082175 µM.
Where [6] appears, read: protein concentration 0.1138 µM.
Setting [7] is: protein concentration 0.03125 µM.
[8] abbreviates: protein concentration 0.3125 µM.
Setting [9] is: protein concentration 0.0284075 µM.
The mark [10] stands for this setting: protein concentration 0.284075 µM.
Setting [11] is: protein concentration 0.0225 µM.
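Note: secreted proteins added to cultured cells, EdU pulse at the end, nuclei found by Hoechst imaging, EdU status from nuclear versus surrounding ring intensity ratio, PBS as neutral control.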

Consider “MRVAGAAKLVVAVAVFLLTFYVISQVFEIKMDASLGNLFARSALDTAARSTKPPRYKCGISKACPEKHFAFKMASGAANVVGPKICLEDNVLMSGVKNNVGRGINVALANGKTGEVLDTKYFDMWGGDVAPFIEFLKAIQDGTIVLMGTYDDGATKLNDEARRLIADLGSTSITNLGFRDNWVFCGGKGIKTKSPFEQHIKNNKDTNKYEGWPEVVEMEGCIPQKQD”, for which the “percentage of EdU-negative” value with MCF7 (setting [1]) was 25.3 ± 0.58%; in the data set with MCF7 (setting [2]), 24.9 ± 1.8%; with hTERT-HMEC (setting [1]), 4.78 ± 1.5%; with hTERT-HMEC (setting [2]) it was 5.17 ± 1.7%.
With “MRVLGGRCGALLACLLLVLPVSEANFLSKQQASQVLVRKRRANSLLEETKQGNLERECIEELCNKEEAREVFENDPETDYFYPKYLVCLRSFQTGLFTAARQSTNAYPDLRSCVNAIPDQCSPLPCNEDGYMSCKDGKASFTCTCKPGWQGEKCEFDINECKDPSNINGGCSQICDNTPGSYHCSCKNGFVMLSNKKDCKDVDECSLKPSICGTAVCKNIPGDFECECPEGYRYNLKSKSCEDIDECSENMCAQLCVNYPGGYTCYCDGKKGFKLAQDQKSCEVVSVCLPLNLDTKYELLYLAEQFAGVVLYLKFRLPEISRFSAEFDFRTYDSEGVILYAESIDHSAWLLIALRGGKIEVQLKNEHTSKITTGGDVINNGLWNMVSVEELEHSISIKIAKEAVMDINKPGPLFKPENGLLETKVYFAGFPRKVESELIKPINPRLDGCIRSWNLMKQGASGIKEIIQEKQNKHCLVTVEKGSYYPGSGIAQFHIDYNNVSSAEGWHVNVTLNIRPSTGTGVMLALVSGNNTVPFAVSLVDSTSEKSQDILLSVENTVIYRIQALSLCSDQQSHLEFRVNRNNLELSTPLKIETISHEDLQRQLAVLDKAMKAKVATYLGGLPDVPFSATPVNAFYNGCMEVNINGVQLDLDEAISKHNDIRAHSCPSVWKKTKNS”, the “percentage of EdU-negative” value in the data set with MCF7 (setting [3]) stood at 25.6 ± 0.65%; in the data set with MCF7 (setting [4]), 28.4 ± 1.6%; in the data set with MCF7 (setting [5]), 27.3 ± 4.3%; with MCF7 (setting [6]), 28.2 ± 3.1%; in the data set with hTERT-HMEC (setting [3]) it was 4.46 ± 0.51%; with hTERT-HMEC (setting [4]) it was 4.81 ± 0.94%. The “percentage of EdU-negative” value with hTERT-HMEC (setting [5]) came to 7.16 ± 1.3%; in the data set on hTERT-HMEC (setting [6]) it was 5.79 ± 0.86%.
In the case of “MRVLLAALGLLFLGALRAFPQDRPFEDTCHGNPSHYYDKAVRRCCYRCPMGLFPTQQCPQRPTDCRKQCEPDYYLDEADRCTACVTCSRDDLVEKTPCAWNSSRVCECRPGMFCSTSAVNSCARCFFHSVCPAGMIVKFPGTAQKNTVCEPASPGVSPACASPENCKEPSSGTIPQAKPTPVSPATSSASTMPVRGGTRLAQEAASKLTRAPDSPSSVGRPSSDPGLSPTQPCPEGSGDCRKQCEPDYYLDEAGRCTACVSCSRDDLVEKTPCAWNSSRTCECRPGMICATSATNSCARCVPYPICAAETVTKPQDMAEKDTTFEAPPLGTQPDCNPTPENGEAPASTSPTQSLLVDSQASKTLPIPTSAPVALSSTGKPVLDAGPVLFWVILVLVVVVGSSAFLLCHRRACRKRIRQKLHLCYPVQTSQPKLELVDSRPRRSSTQLRSGASVTEPVAEERGLMSQPLMETCHSVGAAYLESLPLQDASPAGGPSSPRDLPEPRVSTEHTNNKIEKIYIMKADTVIVGTVKAELPEGRGLAGPAEPELEEELEADHTPHYPEQETEPPLGSCSDVMLSVEEEGKEDPLPTAASGK”, the “percentage of EdU-negative” value is 24 ± 2.9% in the data set on MCF7 (setting [7]), 24 ± 0.5% in the data set with MCF7 (setting [8]), 5.63 ± 0.33% with hTERT-HMEC (setting [7]) and 5.66 ± 0.2% with hTERT-HMEC (setting [8]).
In the case of “MRVSGVLRLLALIFAIVTTWMFIRSYMSFSMKTIRLPRWLAASPTKEIQVKKYKCGLIKPCPANYFAFKICSGAANVVGPTMCFEDRMIMSPVKNNVGRGLNIALVNGTTGAVLGQKAFDMYSGDVMHLVKFLKEIPGGALVLVASYDDPGTKMNDESRKLFSDLGSSYAKQLGFRDSWVFIGAKDLRGKSPFEQFLKNSPDTNKYEGWPELLEMEGCMPPKPF [Q96BQ1]”, the “percentage of EdU-negative” value worked out at 27.2 ± 0.94% in the data set with MCF7 (setting [9]), 26.6 ± 1.5% with MCF7 (setting [10]), 5 ± 0.84% in the data set with hTERT-HMEC (setting [9]) and 6.345 ± 0.041% in the data set on hTERT-HMEC (setting [10]).
As for “MRWCLLLIWAQGLRQAPLASGMMTGTIETTGNISAEKGGSIILQCHLSSTTAQVTQVNWEQQDQLLAICNADLGWHISPSFKDRVAPGPGLGLTLQSLTVNDTGEYFCIYHTYPDGTYTGRIFLEVLESSVAEHGARFQIPLLGAMAATLVVICTAVIVVVALTRKKKALRIHSVEGDLRRKSAGQEEWSPSAPSPPGSCVQAEAAPAGLCGEQRGEDCAELHDYFNVLSYRSLGNCSFFTETG [Q495A1]”, the “percentage of EdU-negative” value in the data set with MCF7 (setting [11]) came to 23.6 ± 1.6%; with MCF7 (protein concentration 0.225 µM) it was 24.1 ± 1.1%; in the data set on hTERT-HMEC (setting [11]), 4.33 ± 0.49%; in the data set with hTERT-HMEC (protein concentration 0.225 µM), 5.59 ± 0.47%.
In the case of “MRWILFIGALIGSSICGQEKFFGDQVLRINVRNGDEISKLSQLVNSNNLKLNFWKSPSSFNRPVDVLVPSVSLQAFKSFLRSQGLEYAVTIEDLQALLDNEDDEMQHNEGQERSSNNFNYGAYHSLEAIYHEMDNIAADFPDLARRVKIGHSFENRPMYVLKFSTGKGVRRPAVWLNAGIHSREWISQATAIWTARKIVSDYQRDPAITSILEKMDIFLLPVANPDGYVYTQTQNRLWRKTRSRNPGSSCIGADPNRNWNASFAGKGASDNPCSEVYHGPHANSEVEVKSVVDFIQKHGNFKGFIDLHSYSQLLMYPYGYSVKKAPDAEELDKVARLAAKALASVSGTEYQVGPTCTTVYPASGSSIDWAYDNGIKFAFTFELRDTGTYGFLLPANQIIPTAEETWLGLKTIMEHVRDNLY [Q9UI42]”, the “percentage of EdU-negative” value in the data set with MCF7 (setting [11]) is 26.3 ± 1.7%; with MCF7 (protein concentration 0.225 µM), 29.1 ± 1.7%; with hTERT-HMEC (setting [11]), 5.99 ± 0.71%; in the data set on hTERT-HMEC (protein concentration 0.225 µM) it was 5.12 ± 0.8%.
In the same order, the values of “MRWRTILLQYCFLLITCLLTALEAVPIDIDKTKVQNIHPVESAKIEPPDTGLYYDEYLKQVIDVLETDKHFREKLQKADIEEIKSGRLSKELDLVSHHVRTKLDELKRQEVGRLRMLIKAKLDSLQDIGMDHQALLKQFDHLNHLNPDKFESTDLDMLIKAATSDLEHYDKTRHEEFKKYEMMKEHERREYLKTLNEEKRKEEESKFEEMKKKHENHPKVNHPGSKDQLKEVWEETDGLDPNDFDPKTFFKLHDVNSDGFLDEQELEALFTKELEKVYDPKNEEDDMVEMEEERLRMREHVMNEVDTNKDRLVTLEEFLKATEKKEFLEPDSWETLDQQQFFTEEELKEYENIIALQENELKKKADELQKQKEELQRQHDQLEAQKLEYHQVIQQMEQKKLQQGIPPSGPAGELKFEPHI” are 24 ± 0.28%, 26 ± 1.5%, 5.36 ± 0.7% and 5.32 ± 1.9%.
